T1: HP0221-T25 (NifU) (Helicobacter pylori strain 26695, UniProt O25009 2-326)
T1 sequence (looked up): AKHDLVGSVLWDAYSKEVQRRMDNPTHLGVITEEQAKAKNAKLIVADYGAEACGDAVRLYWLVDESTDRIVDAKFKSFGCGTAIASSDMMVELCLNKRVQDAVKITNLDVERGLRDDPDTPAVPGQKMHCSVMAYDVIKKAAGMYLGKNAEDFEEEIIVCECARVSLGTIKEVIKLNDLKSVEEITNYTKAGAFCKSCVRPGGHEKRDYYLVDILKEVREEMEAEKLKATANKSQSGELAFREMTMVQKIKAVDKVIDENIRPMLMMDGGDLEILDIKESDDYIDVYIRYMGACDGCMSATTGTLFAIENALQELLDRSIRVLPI

T2: T25-HP0221 (NifU) (Helicobacter pylori strain 26695, UniProt O25009 2-326)
T2 sequence (looked up): T1 sequence (looked up)

T3: T25-HP1492 (Nfu) (Helicobacter pylori strain 26695, UniProt O26025 2-89)
T3 sequence (looked up): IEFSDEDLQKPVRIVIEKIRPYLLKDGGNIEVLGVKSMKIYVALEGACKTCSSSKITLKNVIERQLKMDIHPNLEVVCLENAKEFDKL

B1: T18-HP0656 (natural protein, Helicobacter pylori strain 26695, UniProt O25370 2-383, looked up)
chain: ARNVKGYASTLTWTITRNTLNFLWEQGFKMRINREEILDLMKNAPLKELGQRALRVKQRLHPENLTTFIVDRNINYTNICFVDCKFCAFKRTLKEKDAYVLSYEEIDQKIEELLAIGGTQILFQGGVHPQLKIDYYENLVSHIAQKFPTITIHGFSAVEIDYISKISKLSLKEVLERLKNAGLSSIPGAGAEVLSDRVRDVIAPKKLSSDRWIEVHRMAHLCGIKSTATMMFGSVDNEEDVVEHLQRVRDLQDETGGFRAFILWSFQPNNTPLKEEIPSIKKASSNRYLRYLACSRIFLDNIQNIQSSWVTQGSMIGQLALLFGANDLGSVMMEENVVKAAGTSFCMNEAGMIELIEDIGSVAAKRNTAYEILKRYPAKAKV
B2: T18-HP0631 (natural protein, Helicobacter pylori strain 26695, UniProt O25348 2-384, looked up)
chain: FYDEKKTYQKIEERLDIVRSFNAHNEHKNLQDEFKGAGISRRDLLKWAGMMSTALALPASFAPLTLKAVEVANRLPVIWLHMAECTGCSESLLRSADPTIDSIIFDYINLEYHETIMVASGFQAEKSLHDAIEKHKNNYILMVEGGIPQGTEYFLTQGPNAETGAEECRKAAQYAAAIFAIGTCSSFGGVQAAYPNPSNAQPLHKIIDKPVINVPGCPPSEKNIVGNVLYYLMFGALPKLDAYNRPSWAYGNRIHDLCERRGHFDAGEFVEHFGDENAKRGFCLYKMGCKGPYTFNNCSKLRFNSHTSWPIGAGHGCIGCSEPNFWDTMSPFEEPLANRSIKTAFDGLGADKVADKVGTTLLSATAIGIVAHALLSKAIKNKE
B3: T18-HP0654 (natural protein, Helicobacter pylori strain 26695, UniProt O25368 2-360, looked up)
chain: DFLEKVLDNQVTESKELVRLYDYDLYTLGEVADRMRQNMHQKIVYFNVNRHLNPSNICADACKFCAFSAHRKNPNPYEMSLEEILEKVKNSYNKGIKEVHIVSAHNPNYSYEWYLKVFETIKQEMPNLHLKAMTAAEVHFLSVKFNKPFELVLEDMLKAGVDSMPGGGAEIFDEEIRRKICNGKVGSSRWLEIHAYWHKLGKMSNATMLFGHIENKIHRIDHMLRIKKIQSPKNQVENKEGGFNAFIPLLYQKENNYLNVEKSPSAIEILKTIAISRILLNNIPHIKAYWATLGLNLALVAQEFGANDLDGTIEIESIQSAAGAKSRHGLEKEDLIFKIKDAGFVAVERDSLYNFIQKF
B4: T18-HP0285 (natural protein, Helicobacter pylori strain 26695, UniProt P56130 2-418, looked up)
chain: KKVYFKTFGCRTNLFDTQVMSENLKDFSTTLEEQEADIIIINSCTVTNGADSAVRSYAKKMARLDKEVLFTGCGVKTQGKELFEKGFLKGVFGHDNKEKINALLQEKKRFFIDDNLENKHLDTTMVSEFVGKTRAFIKIQEGCDFDCNYCIIPSVRGRARSFEERKILEQVGLLCSKGVQEVVLTGTNVGSYGKDRGSNIARLIKKLSQIAGLKRIRIGSLEPNQINDEFLELLEEDFLEKHLHIALQHSHDLMLERMNRRNRTKSDRELLETIASKNFAIGTDFIVGHPGESGSVFEKAFKNLESLPLTHIHPFIYSKRKDTPSSLMTDSVSLEDSKKRLNAIKDLIFHKNKAFRQLQLKLNTPLKALVEVQKDGEFKALDQFFNPIKIKSDKPLRASFLEIKEYEIKERENHAVF
B5: T18-HP0117 (natural protein, Helicobacter pylori strain 26695, UniProt P56080 2-308, looked up)
chain: AKENPPIVFGPVLSRRFGKSLGVDLSPSKKQCNYNCIYCELGKAKPIERMEEVIKVETLINAIQNALNNLTTPIDVLTITANGEPTLYPHLLELIQSIKPFLKGVKTLILSNGSLFYEPKVQQALKEFDIVKFSLDAIDLKAFERVDKPYSKDINKILEGILRFSQIYQGQLVAEVLLIKGVNDSANNLKLIAAFLKQINIARVDLSTIDRPSSFKAPKLSEDELLKCSLFFEGLCVSLPKRSITQAKKLISCGIDELLALISRRPLSAEEAPLILDSNAFKHLETLLNHKQITIKKVGSLEFYCAF
B6: T18-HP0779 (natural protein, Helicobacter pylori strain 26695, UniProt P56418 2-852, looked up)
chain: KDFLEDYKKSVSERGSEGIPPLPLNAKQVQAVVEILTKDPTNAAFAKELLIHRVSPGVDEGAKVKAEFLAKLSQKKLECVHISALEATTLLGTMLGGYNVEPLIMGLESQDKNIAKESAKALKTTLLVYGSFDKIAAMSKTNALAKEVLESWANAEWFLNKEPLNECIEACVFKIDGETNTDDLSPASDAFTRSDIPLHAKAMLKNRIENYEQRIKAIKTKGVPVAYVGDVVGTGSSRKSATNSIMWHFGKDIPFVPNKRSGGIVIGGVIAPIFFATCEDSGALPIVADVKDLKEGDLIKIYPYKGEITLNDKVVSTFKLEPETLLDEVRASGRIPLIIGRGLTNKARKFLGLGESEAFKKPSAPKSDAKGYTLAQKIVGHACGVKGILPGTYCEPKVTTVGSQDTTGAMTRDEVKELASLKFDAPFVLQSFCHTAAYPKPSDVSLHATLPGFITQRGGVALHPGDGVIHTWLNRMGLPDTLGTGGDSHTRFPLGISFPAGSGLVAFAAVTGTMPLNMPESVLVRFKGEMNPGITLRDLVNAIPYYAIKKGLLTVEKKGKINVFNGRILEIEGLPDIKMEQAFELSDASAERSAAACVVRLNKEPMIEYLKSNIKLIDEMIASGYEDKETLKKRRDAMQAWVDNPVLLEPDSNAQYAAVIEIDVAEITEPILACPNDPDDVATLSEVLADTTGKRPHAIDEVFIGSCMTNIGHFRAFGEIVKNAPPSQARLWVVPPSKMDEQELINEGYYAIFGAAGARTEVPGCSLCMGNQARVRDNAVVFSTSTRNFDNRMGRGAKVYLGSAELGAACALLGRIPTKEEYMNLVSEKLESQKDKIYRYMNFNLMENFRL
B7: T18-HP0625 (natural protein, Helicobacter pylori strain 26695, UniProt O25342 2-359, looked up)
chain: LENRVKTKQIFIGGVAIGGDAPISTQSMTFSKTADIESTKNQIDRLKLAGADLVRVAVSNEKDALALKELKKVSPLPLIADIHFHYKFALIAAQSVDAIRINPGNIGSKEKIKAVVDACKEKNIPIRIGVNAGSLEKQFDQKYGPTPKGMVESALYNAKLLEDLDFTNFKISLKASDVIRTIEAYRMLRPLVIYPFHLGVTEAGNLFSSSIKSAMALGGLLMEGIGDTMRVSITGELENEIKVARAILRHSGRLKEGINWISCPTCGRIEANLVDMAIKVEKRLSHIKTPLDISVMGCVVNALGEAKHADMAIAFGNRSGLIIKEGKVIHKLAEKDLFETFVIEVENLAKEREKSLKD
B8: T18-HP0665 (natural protein, Helicobacter pylori strain 26695, UniProt O25376 2-457, looked up)
chain: QTIDFEKFSQYSKPGPRYTSYPTAVEFNENFNEESLKTAFFNHDNLKNPMPLSLYTHLPFCRSACYFCACSVIYTSLEEKKIRYISYLKKELALLKNAMDTNREVAQFHYGGGTPTFFSPIQLDEITQSIQEVFPNFSKDIEMSCEIDPRHFTKEHMQTLFDRGFNRLSFGVQDFDFEVQKAIHRIQPFEMVQESVKLARDYGIKSINFDLIYGLPNQTKEGFLKTLEWVLKLDPDRLAVFNYAHVPWVKKTMRKIDETLLPSLRDKLEILESLISFLEKANYQMIGMDHFAKSDNELYLALQKAELRRNFQGYTTKKFTQTIGIGVTSIGEGGDYYTQNYKDLHHYEKALDLGHLPVERGVALSQEDVLRKEVIMQMMSNLKLDYSKIEEKFSVDFKAHFKKELEKLKPYEEAGLLSFNSKGFEMTKTGGMLVRNMAMEFDAYLRGGEKHFSKTL
B9: T18-HP1222 (natural protein, Helicobacter pylori strain 26695, UniProt O25820 2-948, looked up)
chain: RVEENYHAFFTEASGFLNERIFKDYLRRLAYGIDASCYRYIPKIVAWVKNEEEVQKLCVLAKKHGVSLTFRAAGSSLSGQAICDGVLVMVTHFFKDAQILDNAQSIQLSCGVIGSNANALLKPYHKKIGPDPSTINTAMIGGIVANNASGMCCGVEQNSYKTLKSLRVILADGTLLDTANQESVESFKNAHKDLIEGVLNLRKEILEDKELHALIKKKYEIKNTTGYSLNALIDFEDPIEIISHLFIGSEGTLGFISSVELECVKDYAYKTCALLFYENLERCAKAAQILAALKAKQPEMISSAELMDYACLKSVKGLEGMPSVVLEIKEPNACLLIQSESDDPLILENSMQTILNALSAIPVVLDSQISSDPSIYQSWWKIRKGIFPIAASKRKSQSSVIIEDICFSQEDFVEGAKAIEGLLKKHGFKDNGIIFGHALSGNLHFVVTPILENEAERKAFENLVSEMFLMVSKSSGSIKAEHGTGRMVAPFVEMEWGEKAYKIHKQIKELFDPNGILNPDVIITNDKEIHTKNLKSIYPIEEHLDMCMECGFCERICPSKDLSLTPRQRIVIHREVEHLKERVSHGHHEDQVLLDELLKESEYLAHATCAVCHMCSTLCPLEIDTGKIALNYYQKNPKGEKIASKILNHMQTTTSMARFSLKSARLVQNLIGSHNLVSLTKGIKKFIKPFPKAFYYMPKNNAYPLENKTLKSEEKVIYFSTCINRSFAPSNKMADKRCIQEVFESLCQKAKVSVMYPNGLNALCCGKAFINYTDLTKQNNEKNHAIFLQLSDKGKIPIVLDHSACSTHFFKQMKAYKDLKVYDLSVYIEEVLSPKLKFNPINEDIGLYTMCALKLENKEELLFNLAKKCTLGEIVIHKETGCCGFAGNKGFFTPELNESALNGFQAFYQSYDLKRGFSTSSTCEIGLSEKTRFSWQHIAYLVDACTL

Legend:
Test in all cases: two-hybrid
[1] = target: T1, HP0221-T25 (NifU)
[2] = target: T2, T25-HP0221 (NifU)
[3] = target: T3, T25-HP1492 (Nfu)

Binder	growth OD595 in M63-maltose [1] [OD595]	growth OD595 in M63-maltose [2] [OD595]	growth OD595 in M63-maltose [3] [OD595]
B1	0.26	0.13	
B2	0.24	0.08	
B3	0.33	0.09	
B4			0.21
B5			0.09
B6			0.17
B7	0.37	0.11	
B8	0.06	0.07	
B9			0.06

Source: PMC5943153 (Molecular microbiology, 2018)
